Results on two substances are retold here after patent US20240109967A1.

The target of test [1] is feline CTLA-4 in feline CD5+ leucocytes (feline) (UniProt Q9XTA1). As to the kind of experiment: flow cytometry, feline PBMC, Surface labeling, anti-HA secondary alone, gated Lymphocytes>Single cells>Live>CD5+.
Test [2] deals with full length canine CTLA-4 on cells (KTδ32.cCTLA-4 cells; canine T cells and regulatory T cells) (canine) (UniProt Q9XSI1).
The target is the same in test [3]. This is another data set of the same source.
The target is the same in test [4]. This is another data set of the same source.
Test [5] concerns the target feline CTLA-4 in feline CD5+ leucocytes (feline) (UniProt Q9XTA1).
For test [6] the target is unchanged. The source holds these as a separate data set.

“And” between values parts separate entries of the source, which are not always exact repeats. Identical values can stand only once. Like-named read-outs stand apart in the source and are kept apart here.

As for 2nd only (anti-HA secondary alone), the % of gated cells in the CTLA4 gate in test [1] was determined as 3.8%.

As to irrelevant MERS mAb (antibody), the % of cells in the CTLA4(HA.APC) gate in test [2] was 4.23% and 1.9%. In addition, in test [3], the % of gated cells in Q5 (CTLA4+ CD4-) was 0.014% and 4.28% and 0.42%. The % of gated cells in Q6 (CTLA4+ CD4+) in test [3] was 0.72% and 5.32% and 0.68%. The % of gated cells in the CTLA4 gate in test [4] is 8.33% and 0%; in test [5], 0.5%; in test [6] it was 0.13%.
